This is an account of results in doi:10.1101/2022.10.09.511488 (bioRxiv, 2022).

Data set [1] addresses Huc protomer (HucSL heterodimer) (Mycobacterium smegmatis mc2155). The data set is described as follows: cryo-EM structure.
The data set “cryo-EM structure” deals with the molecule itself. The data set is described as follows: cryo-EM structure.

In the case of “Huc protomer (HucSL heterodimer) (complex)”, the stoichiometry N in data set [1] was determined as 2.

B1: HucM (MSMEG_2261) (natural protein)
chain: MASNGHSAGQNAIDELPDISPVDGIRRRLDDPQVAEALNSLLDHADLLAVLVKGLDGFVRRGDDIANNLTSAIGELKALNAADTPIPALAALKDVDLAGLANSLATLSGGLVKATPALNAVLDSLTDQRGAEVLSALGDALVAARTSAPPAPRGVRGMWKTLRAAAKDPDVGRGVSYLIEVARVFGSKV
Regarding B1, in the data set “cryo-EM structure”, the “stoichiometry N” value turned out to be 4.

A word on the stoichiometry N: it is a count of units in the complex or per binding partner.
